Patent US11161912B2, “Heparanase-neutralizing monoclonal antibodies” (Technion Research & Development Foundation Limited, priority 2015, dated 2021)

Legend:
heparanase = biological target: T1, heparanase (Homo sapiens, UniProt Q9Y251); assay: Intracellular heparanase content of heparanase-transfected 293 cells (immunofluorescence, immunoblot); assay type: cell-based; details: cells over-expressing heparanase grown with mAb for two days
T1 sequence (Q9Y251 36-543): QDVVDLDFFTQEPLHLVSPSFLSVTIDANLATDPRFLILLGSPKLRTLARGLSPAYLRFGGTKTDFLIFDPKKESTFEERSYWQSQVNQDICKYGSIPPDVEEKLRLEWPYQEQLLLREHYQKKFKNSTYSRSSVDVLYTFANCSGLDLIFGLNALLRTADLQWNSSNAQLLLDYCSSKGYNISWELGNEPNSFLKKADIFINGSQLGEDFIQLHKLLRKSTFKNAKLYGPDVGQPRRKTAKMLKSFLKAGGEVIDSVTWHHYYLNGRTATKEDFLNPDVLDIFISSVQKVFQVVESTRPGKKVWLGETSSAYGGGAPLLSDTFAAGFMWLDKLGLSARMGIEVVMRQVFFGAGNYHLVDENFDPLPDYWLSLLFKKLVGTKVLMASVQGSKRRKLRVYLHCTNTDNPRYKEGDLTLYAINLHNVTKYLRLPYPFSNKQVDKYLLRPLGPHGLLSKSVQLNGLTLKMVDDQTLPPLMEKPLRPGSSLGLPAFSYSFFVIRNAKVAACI
Description: FIG. 3A. HEK 293 cells were incubated with latent 65 kDa (upper panel) or GS3 constitutively active heparanase (1 μg/ml; third panel) and the indicated mAbs (10 μg/ml). The cell medium was aspirated at the time designated and cell lysates were subjected to immunoblotting applying anti-heparanase antibody (upper and third panels). […] Heparanase-transfected 293 cells were grown with control mouse IgM or mAb 9E8 for two days. Cells were then fixed with methanol and subjected to immunofluorescent staining applying anti heparanase antibody (second panel) or lysed and subjected to immunoblotting applying anti-heparanase antibody (fourth panel). Purified recombinant active heparanase (200 ng) was pre-incubated with control mouse IgM ( ? ), mAb 8A5 ( ? ), mAb 9E8 ( ? ), all at 2 μg/ml, for 2 h in serum-free RPMI medium on ice. The mixture was then applied onto ^35S-labeled ECM-coated dishes and heparanase activity was determined as described above (lower panel). FIG. 3B, C. ESb mouse T-lymphoma cells (5×10^5) were inoculated subcutaneously in NOD/SCID mice (n=5) and treated with PG545 (20 mg/kg, once a week) (B) or the indicated mAb (500 μg/mouse every other day) (C). FIG. 3C. […] Quantification of the extent of CD45 staining is shown graphically in the lower panel. […]

CAG myeloma cells = assay: CAG-luciferase myeloma, tail vein inoculation, tumor burden by IVIS imaging; assay type: in vivo, human; details: mAb 600 μg/mouse every other day
Description: Tumorigenicity. Luciferase-labelled CAG myeloma (5×10^6) or Raji lymphoma (1×10^6) cells were injected into the tail vein of NOD/SCID mice (n=5). Mice were treated with PG545 (20 mg/kg, once weekly), mAb 9E8 (600 μg/mouse) every other day starting one day following cell inoculation and tumor growth was examined by IVIS imaging. At termination, mice were sacrificed, the backbones were excised, fixed in formalin and following de-calcification with 10% EDTA solution were embedded in paraffin and subjected to histological and immunohistochemical analyses essentially as described (Weissmann et al, 2016, Proc Natl Acad Sci USA 113:704-709). […]
IVIS imaging. […] Light emitted from the bioluminescent cells was detected by the IVIS camera system with images quantified for tumor burden using a log-scale color range set at 5×10^4 to 1×10^7 and measurement of total photon counts per second (PPS) using Living Image software (Xenogen) (Weissmann et al, 2016, Proc Natl Acad Sci USA 113:704-709).
FIG. 6A. […] Tumor growth was evaluated by IVIS imaging (left panels). Quantification of luciferase signals is shown graphically in the right panel. […] Bone marrow was harvested from C57Bl/6 mice, cells were collected by centrifugation and heparanase activity was determined as described under ‘Materials and Methods’ (left panel). […]

B1: mAb 9E8: monoclonal IgM raised against KKDC peptide (Lys158-Asn171) of heparanase; VH SEQ ID NO: 7, VL SEQ ID NO: 8 (antibody)
VH: EVKLLESGGGLVQPGGSLKLSCAASGFDFSRYWMSWVRQAPGKGLEWIGEINPDSSTINYTPSLKDKFIISRDNAKNTLYLQMSKVRSEDTALYYCARRGYEGNYAMDYWGQGTSVTVSSESQSFPNVFPLVSCESPLSDKNLVAMGCLAR
VL: DIVMTQAAPSVPVTPGESVSISCRSSKSLLHSNGNTYLYWFLQRPGQSPQLLIYRMSNLASGVPDRFSGSGSGTAFTLRISRVEAEDVGVYYCMQHLEYPFTFGSGTKLEIKRADAAPTVSIFPPSSEQLTSGGASVVCFL
modifications: IgM constant regions
Q: How did the “intracellular content of heparanase” value (heparanase) turn out when B1 was run?
A: The value was “marked decrease”.

Q: What about the “decrease in tumor burden (luciferase signal)” value (CAG myeloma cells) of the same molecule?
A: Its value is 2-3 fold.
